The target of the assay is T1, oxMIF (recombinant human MIF immobilized into microwell plates, transforming MIF to oxMIF) (human, UniProt P14174 2-115).
T1 construct: also called immobilized MIF (oxMIF); immobilized oxMIF
Description: ELISA on immobilized MIF (oxMIF), protein L-HRP detection, mean of triplicate. Here is the method: Recombinant human MIF (1 μg/ml) diluted in PBS was immobilized into microwell plates (transforming MIF to oxMIF according to Thiele M. et al., 2015, J Immunol 2015; 195:2343-2352). After blocking, the bispecific antibodies were added to the plates at different concentrations. Bound bispecific antibodies were detected using protein L-HRP conjugate. Plates were developed by adding 3 3′5 5′tetramethylbenzidine (TMB) and chromogenic reaction was stopped with […]. OD was measured at 450 nm.
The binding curves of anti-oxMIF/CD3 bispecific antibodies C0061 and C0062 binding towards immobilized MIF (oxMIF) in an ELISA are depicted in FIG. 4. The monospecific anti-oxMIF antibody C0008 was used as positive control for oxMIF binding. EC50 values of the binding curves, which reflect rough KD estimates, were calculated by 4-parameter fit.
(In general: In an ELISA, binding on a coated surface is turned into a signal by an enzyme label.)

One may read the EC50 as the concentration needed to bring the measured effect to its halfway point.

T1 sequence (P14174 2-115 limits assumed): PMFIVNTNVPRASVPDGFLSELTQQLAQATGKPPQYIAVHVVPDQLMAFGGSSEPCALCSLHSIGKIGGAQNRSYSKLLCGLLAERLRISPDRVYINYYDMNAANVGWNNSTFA

B1: C0061 (Anti-oxMIF Fab and anti-oxMIF/anti-CD3 BiTE fused to Fc; Fab-BiTE-Fc) (bispecific antibody, human IgG1, kappa)
heavy: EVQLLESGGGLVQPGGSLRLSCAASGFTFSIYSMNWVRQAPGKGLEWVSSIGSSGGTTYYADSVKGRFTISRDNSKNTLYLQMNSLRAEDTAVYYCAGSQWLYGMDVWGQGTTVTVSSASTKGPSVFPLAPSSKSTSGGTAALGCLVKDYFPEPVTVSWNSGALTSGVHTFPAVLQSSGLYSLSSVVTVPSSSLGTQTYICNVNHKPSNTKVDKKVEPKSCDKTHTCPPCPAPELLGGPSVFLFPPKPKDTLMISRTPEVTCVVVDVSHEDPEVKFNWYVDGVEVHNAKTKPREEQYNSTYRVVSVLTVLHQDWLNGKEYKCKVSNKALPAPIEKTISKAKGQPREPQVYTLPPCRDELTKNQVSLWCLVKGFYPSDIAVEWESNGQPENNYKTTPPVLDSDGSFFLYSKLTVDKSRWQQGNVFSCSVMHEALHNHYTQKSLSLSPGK
chain: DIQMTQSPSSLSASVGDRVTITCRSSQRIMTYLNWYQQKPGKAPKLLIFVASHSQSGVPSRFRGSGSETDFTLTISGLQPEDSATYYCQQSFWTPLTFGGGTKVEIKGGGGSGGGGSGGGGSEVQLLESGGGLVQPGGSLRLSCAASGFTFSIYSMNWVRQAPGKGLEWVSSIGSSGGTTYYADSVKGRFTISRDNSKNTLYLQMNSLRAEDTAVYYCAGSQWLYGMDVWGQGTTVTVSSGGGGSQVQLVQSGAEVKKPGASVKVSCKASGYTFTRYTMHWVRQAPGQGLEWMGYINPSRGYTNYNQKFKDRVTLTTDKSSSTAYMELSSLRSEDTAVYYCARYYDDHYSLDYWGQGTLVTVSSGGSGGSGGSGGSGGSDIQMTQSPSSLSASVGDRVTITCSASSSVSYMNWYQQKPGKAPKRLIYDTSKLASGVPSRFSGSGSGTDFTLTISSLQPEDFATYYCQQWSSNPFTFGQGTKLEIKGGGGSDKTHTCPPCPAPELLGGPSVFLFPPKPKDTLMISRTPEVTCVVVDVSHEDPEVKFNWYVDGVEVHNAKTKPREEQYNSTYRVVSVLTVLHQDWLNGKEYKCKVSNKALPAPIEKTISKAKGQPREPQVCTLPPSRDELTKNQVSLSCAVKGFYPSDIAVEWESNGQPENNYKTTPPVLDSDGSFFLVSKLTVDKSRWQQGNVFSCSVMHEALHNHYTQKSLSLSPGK
light: DIQMTQSPSSLSASVGDRVTITCRSSQRIMTYLNWYQQKPGKAPKLLIFVASHSQSGVPSRFRGSGSETDFTLTISGLQPEDSATYYCQQSFWTPLTFGGGTKVEIKRTVAAPSVFIFPPSDEQLKSGTASVVCLLNNFYPREAKVQWKVDNALQSGNSQESVTEQDSKDSTYSLSSTLTLSKADYEKHKVYACEVTHQGLSSPVTKSFNRGEC
notes: Three polypeptides; bivalent for oxMIF, monovalent for CD3
Take B1: the EC50 amounted to 0.9 nM.

The values above are taken from patent US20230045873A1 (ONCOONE RESEARCH AND DEVELOPMENT, published 2023).
